Consider four molecules from article PMC6356842 (Toxins, 2019).

Substitutions are numbered along the chain they refer to. Names and notes keep the numbering of the source.

What is called Kd is a measure of binding affinity in units of concentration. Low values mean a tighter complex, high ones a looser complex. The term koff denotes a measure of how fast the partners let go of each other. A word on the kon: it is the second-order rate constant of association. A high value points to faster complex formation.

Holding throughout (conditions): both partners purified
One experiment addresses T1, Css4 toxin (Centruroides suffusus, UniProt P60266).
T1 construct: source: purified from scorpion venom
Put plainly: SPR. On the technique in general: Surface plasmon resonance follows binding to a sensor surface in real time, without labels.

In experiment [1] the target is T2, Cn2 toxin (Centruroides noxius).
T2 construct: source: purified from scorpion venom
Put plainly: SPR.

Another experiment has as its target T3, Cll1 toxin (Centruroides limpidus).
T3 construct: source: purified from scorpion venom
T3 chain: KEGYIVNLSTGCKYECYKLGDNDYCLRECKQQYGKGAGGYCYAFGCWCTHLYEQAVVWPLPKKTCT
Put plainly: SPR.

In a further experiment the target is T4, Cll2 toxin (Centruroides limpidus).
T4 construct: source: purified from scorpion venom
T4 chain: T3 chain with I5L, L8H, Y17F, T49N, T66N
Kind of experiment: SPR.

The target in another experiment is T5, Ct1a toxin (Centruroides tecomanus).
T5 construct: source: purified from scorpion venom
T5 chain: T3 chain with I5L, L8H, Y17F, K30R, T66N
Put plainly: SPR.

Experiment [2] deals with T6, Css2 toxin (Centruroides suffusus).
T6 construct: source: purified from scorpion venom
T6 chain: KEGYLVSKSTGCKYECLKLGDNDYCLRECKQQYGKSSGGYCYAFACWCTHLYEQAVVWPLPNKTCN

The next experiment deals with T7, CeII9 toxin (Centruroides elegans).
T7 construct: also called Cell9; source: purified from scorpion venom
T7 chain: T3 chain with I5L, L8H, Y17F, K30R, Q32K, T66N

Experiment [3] deals with T2, Cn2 toxin. Put plainly: SPR. The source holds these as a separate data set.
The target of experiment [4] is T6, Css2 toxin. Put plainly: SPR.

B1: scFv 10FG2 (scFv, V domains shown)
VH: QVNLRESGGGLVQPGGSLRLSCAASGFSFGSYGMHWVRQAPGKGLEWVAVISYGGGSKYYADSVKGRFTISRDNSKNTLYLQMNSLRAEDTAVYYCAKDARDCLLCSDWTFDLWGRGTLVTVSS
VL: NFMLTQPHSASGTPGQRVTISCSGSSSNIGSNTVNWYRHLPGSAPELLIGSHNQRPSGVPDRFSGSKSGTSASLAISGLQSEDEADYYCAAWDDSTLGYVFGTGTKLTVL
notes: also called 10F5; scFv 10F5
Regarding B1, in the experiment with Css4 toxin, the binding result was “binds”. For the same molecule, the Kd was found to be 0.7 nM with Cn2 toxin [1]; 0.23 nM in the experiment with Cll1 toxin; 4.2 nM with Cll2 toxin; 8 nM with Ct1a toxin; 2.75 nM in the experiment with Css2 toxin [2]; 6.1 nM with CeII9 toxin. Further, the “TR (time of residence)” value with Cn2 toxin [1] stood at 163 min; in the experiment with Cll1 toxin, 264 min; in the experiment with Cll2 toxin, 18.5 min; in the experiment with Ct1a toxin it was 16.7 min. The koff in the experiment with Cn2 toxin [1] came to 0.000102 s⁻¹; with Cll1 toxin, 6.3e-05 s⁻¹; with Cll2 toxin, 0.0009 s⁻¹; with Ct1a toxin it was 0.001 s⁻¹; with Css2 toxin [2], 0.00055 s⁻¹; in the experiment with CeII9 toxin, 0.000925 s⁻¹. Also, the kon in the experiment with Cn2 toxin [1] was 150000 M⁻¹ s⁻¹; in the experiment with Cll1 toxin, 265000 M⁻¹ s⁻¹; with Cll2 toxin, 220000 M⁻¹ s⁻¹; with Ct1a toxin it was 170000 M⁻¹ s⁻¹; with Css2 toxin [2] it was 195000 M⁻¹ s⁻¹; in the experiment with CeII9 toxin, 150000 M⁻¹ s⁻¹.

B2: scFv 10F (scFv, V domains shown)
VH: B1 VH with S107A
VL: B1 VL with S25I, G65A
On to B2, for which the binding result with Cn2 toxin [3] is recorded as “binds”.

B3: scFv 10F4 (scFv, V domains shown)
VH: B1 VH with T110N
VL: B1 VL
Consider B3, for which the binding result in the experiment with Cn2 toxin [3], with Css2 toxin [4] and with Css4 toxin was “binds” in each case.

B4: scFv 10F1 (scFv, V domains shown)
VH: B1 VH with S107A
VL: B1 VL with S25I
notes: VH, linker (G125 to S139), VL on one chain; numbers run through the whole scFv; 10F with A204G; source: expression vector pSyn1, purified (Ni2+-NTA, Superdex 75 gel filtration), monomer
Take B4: the binding result in the experiment with Cn2 toxin [3], in the experiment with Css2 toxin [4] and in the experiment with Css4 toxin was “binds” in each case.
